Reference: patent US20240425593A1 (SICHUAN KELUN BIOTECH BIOPHARMACEUTICAL, published 2024)
Where two headings read alike, the source gives them in different places.

T1: human ICOS (human, UniProt Q9Y6W8 21-140, limits assumed)
T1 construct: Bought
T1 sequence (looked up): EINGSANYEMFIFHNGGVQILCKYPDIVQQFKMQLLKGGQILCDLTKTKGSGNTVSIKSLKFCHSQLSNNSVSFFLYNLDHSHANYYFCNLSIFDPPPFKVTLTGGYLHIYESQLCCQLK

T2: monkey PD-1-hFc (monkey)
T2 construct: Extracellular domain of monkey PD-1 fused to an hFc tag, made in house; not shown: The hFc tag and any linker
T2 chain: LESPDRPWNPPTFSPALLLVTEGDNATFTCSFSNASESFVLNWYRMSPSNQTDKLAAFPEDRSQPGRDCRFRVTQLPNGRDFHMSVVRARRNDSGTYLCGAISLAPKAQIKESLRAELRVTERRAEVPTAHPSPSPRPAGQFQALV


Legend:
[1] = target: PD-1 on Jurkat-PD-1-NFAT cells (UniProt Q15116 25-288, limits assumed); experiment: cell-based or functional assay
human ICOS = target: T1, human ICOS; experiment: ELISA, coated antigen 1 µg/mL
Protocol: (§1) After washing, a goat anti-human IgG secondary antibody labeled with horseradish peroxidase diluted in phosphate buffer (PBS) containing 2% BSA in a ratio of 1:15000 was added, followed by incubating at 37° C. for 1 hour. After washing, the TMB chromogen solution was used for developing, and the absorbance value was read using a microplate reader at 450 nm. The data were imported into Graphprism to calculate EC₅₀ values.

human PD-1-ECD-mFc = target: T3, human PD-1-ECD-mFc (human; mouse, UniProt Q15116 25-170); experiment: ELISA, coated human PD-1-mFc
T3 construct: extracellular domain; Made in HEK293F cells; also called human PD-1-mFc; PD-1-mFc; not shown: mouse Fc (mFc) amino acids, AB097847.1

monkey PD-1-hFc = target: T2, monkey PD-1-hFc; experiment: ELISA, coated monkey PD-1-hFc
Protocol: The specific experimental steps were as follows: human PD-1-hFc and monkey PD-1-hFc antigens were diluted to 1 μg/mL with CBS solution, then coated on a 96-well ELISA plate (purchased from Guangzhou Jiete Bio) at 4° C. overnight. […] After washing, a goat anti-human secondary antibody (FC) labeled with horseradish peroxidase diluted in phosphate buffer (PBS) containing 2% BSA in a ratio of 1:15000 was added, followed by incubating at 37° C. for 1 hour. After washing, the TMB chromogen solution was used for developing, and the absorbance value was read using a microplate reader at 450 nm, and the data were imported into Graphprism to calculate EC₅₀ values.

[2] = target: T4, full-length human PD-1 on CHO-hPD-1 cells (human, UniProt Q15116 25-288); experiment: flow cytometry, FITC-labelled antibody on CHO-hPD-1 cells
T4 construct: whole, on cells; also called PD-1 on the cell membrane surface of CHO-hPD-1

[3] = target: T4, full-length human PD-1 on CHO-hPD-1 …; experiment: competitive FACS on CHO-hPD-1 cells, competitor PD-L1-mFc-Bio
From the text: (§2) The data were imported into Graphprism to calculate IC₅₀ values.

FcRn protein = target: T5, FcRn protein (UniProt P55899 24-297; P61769 21-119); experiment: BLI (Octet ForteBio), FcRn on SA biosensor, antibody in PBST pH6.0
T5 construct: Immobilised on an SA biosensor
From the text: The antibody Fc can bind to FcRn so that it cannot be easily cleared in vivo, thus prolonging the half-life in vivo.

[4] = target: T4, full-length human PD-1 on CHO-hPD-1 …; experiment: flow cytometry on CHO-hPD-1 cells with FITC-labeled antibody
human PD-1-His = target: T6, human PD-1-His (human, UniProt Q15116 25-170); experiment: BLI (Octet ForteBio), antibody on ProA biosensor, PD-1-His in solution
T6 construct: extracellular domain; not shown: His tag

human BTLA-his = target: T7, human BTLA-his (human, UniProt Q7Z6A9 31-157, limits assumed); experiment: ELISA on coated human BTLA-his, HRP goat anti-human IgG detection
T7 construct: Bought; not shown: His tag
Protocol: as §1

human PD-L1-his = target: T8, human PD-L1-his (human, UniProt Q9NZQ7 19-239, limits assumed); experiment: ELISA on coated human PD-L1-his, HRP goat anti-human IgG detection
T8 construct: Bought; not shown: His tag
Protocol: as §1

CD64 protein [5] = target: T9, CD64 protein (UniProt P12314 16-288, limits assumed); experiment: BLI (Octet ForteBio), CD64 immobilised on an SA biosensor, antibody in solution
T9 construct: also called FcγRI

[6] = target: T4, full-length human PD-1 on CHO-hPD-1 …; experiment: competitive flow cytometry on CHO-hPD-1 cells; blocked ligand PD-L1 (PD-L1-mFc-Bio)
From the text: as §2

CD64 protein [7] = target: T9, CD64 protein; experiment: BLI (Octet ForteBio), CD64 immobilised on an SA biosensor, antibody in solution; remark: listed apart in the source

Binder	EC50 by the PD-1/PD-L1 luciferase reporter system [1]	binding result (human ICOS)	EC50 (human PD-1-ECD-mFc)	EC50 (monkey PD-1-hFc)	EC50 [2]	IC50 [3]	Kd (FcRn protein)	koff (FcRn protein)	kon (FcRn protein)	EC50 (read off the curve) [4]	Kd (human PD-1-His)	koff (human PD-1-His)	kon (human PD-1-His)	binding result (human BTLA-his)	binding result (human PD-L1-his)	binding result (CD64 protein [5])	IC50 (read off the curve) [6]	binding result (CD64 protein [7])
35E6-HZ1-IgG1-1D (antibody, also called IgG1-1D mutant anti-PD-1 humanized antibody) heavy: QVQLQESGPGLVKPSETLSLTCTVSGYSITSDYWSWIRQPPGKGLEWIGYINYDGDNNYNPSLKSRVTISRDTSKNQFSLKLSSVTAADTAVYYCARGGFDYWGQGTLVTVSSASTKGPSVFPLAPSSKSTSGGTAALGCLVKDYFPEPVTVSWNSGALTSGVHTFPAVLQSSGLYSLSSVVTVPSSSLGTQTYICNVNHKPSNTKVDKRVEPKSCDKTHTCPPCPAPEAAGGPSVFLFPPKPKDTLMISRTPEVTCVVVAVSHEDPEVKFNWYVDGVEVHNAKTKPREEQYNSTYRVVSVLTVLHQDWLNGKEYKCKVSNKALPAPIEKTISKAKGQPREPQVYTLPPSREEMTKNQVSLTCLVKGFYPSDIAVEWESNGQPENNYKTTPPVLDSDGSFFLYSKLTVDKSRWQQGNVFSCSVMHEALHAHYTQKSLSLSPGK light: EIVLTQSPATLSLSPGERATLSCRASESVEYYGTNLMQWYQQKPGQPPRLLIYFASNVASGIPARFSGSGSGTDFTLTISSLEPEDFAVYFCQQSKKVPSTFGQGTKVEIKRTVAAPSVFIFPPSDEQLKSGTASVVCLLNNFYPREAKVQWKVDNALQSGNSQESVTEQDSKDSTYSLSSTLTLSKADYEKHKVYACEVTHQGLSSPVTKSFNRGEC	2810 pM	no binding (tested: 10 µg/mL and 1 µg/mL)	121 pM	309 pM	78 pM	0.818 ng/mL	7890 pM	0.00746 s⁻¹	946000 M⁻¹ s⁻¹	~10 ng/mL	1320 pM	0.000306 s⁻¹	333000 M⁻¹ s⁻¹	no binding (tested: 10 ug/mL)	no binding (tested: 10 ug/mL)	no binding	~100 ng/mL	–
91D5-HZ2-IgG1-1D (antibody, also called IgG1-1D mutant anti-PD-1 humanized antibody) heavy: EVQLVQSGAEVKKPGASVKVSCKASGYTFTDYYMNWVREAPGQGLEWMGEINPKYGDTTYNQKFKDRATLTVDKSTSTAYMELSSLRSDDTAVYYCAKGIRLFDSWGQGTLVTVSSASTKGPSVFPLAPSSKSTSGGTAALGCLVKDYFPEPVTVSWNSGALTSGVHTFPAVLQSSGLYSLSSVVTVPSSSLGTQTYICNVNHKPSNTKVDKRVEPKSCDKTHTCPPCPAPEAAGGPSVFLFPPKPKDTLMISRTPEVTCVVVAVSHEDPEVKFNWYVDGVEVHNAKTKPREEQYNSTYRVVSVLTVLHQDWLNGKEYKCKVSNKALPAPIEKTISKAKGQPREPQVYTLPPSREEMTKNQVSLTCLVKGFYPSDIAVEWESNGQPENNYKTTPPVLDSDGSFFLYSKLTVDKSRWQQGNVFSCSVMHEALHAHYTQKSLSLSPGK light: DIQLTQSPSSLSASVGDRVTITCRPSGNVHNYFAWYQQKPGKSPKLLVYNAKTLAEGVPSRFSGSGSGTDYTLTISSLQPEDFATYYCHHYYTAPFTFGGGTKVEIKRTVAAPSVFIFPPSDEQLKSGTASVVCLLNNFYPREAKVQWKVDNALQSGNSQESVTEQDSKDSTYSLSSTLTLSKADYEKHKVYACEVTHQGLSSPVTKSFNRGEC	3480 pM	no binding (tested: 10 µg/mL and 1 µg/mL)	104 pM	250 pM	93 pM	1.32 ng/mL	5330 pM	0.00725 s⁻¹	1.36e+06 M⁻¹ s⁻¹	~10 ng/mL	1170 pM	0.00023 s⁻¹	384000 M⁻¹ s⁻¹	no binding (tested: 10 ug/mL)	no binding (tested: 10 ug/mL)	–	~200 ng/mL	no binding
